B1: LINE1-full (parent)
chain: UACGUAGGUGGUUUUCCCCUGAUAGUGCUAAGGGGGCCUGGAAGUUUGGACUGGGCAGAGCUCAACACAGCGUGGCAAAGUGGCUGUGGCUAGACUGCCUCUCUGGAUUCCUCGUCACUCAGCAGGGCAUCUCUGAGAGAAAUGCC

Variants of: B1
Experiment: self-cleavage, relative activity (ratio to wild type); higher = more cleavage; in vitro, sequencing; the parent is a self-cleaving ribozyme

Variant | self-cleavage
UACGUAGGUGGUUUUCCCCUGAUAGUGCUAAGGGGGCCUGGAAGUUUGGACUGGGCAGGGCUCAACACAGCGUGGCAAAGUGGCUGUGGCUAGACUGCCUCUCUGGAUUCCUCGUCACUCAGCAGGGCACCUCUGAGAGAAAUGCC [A59G U130C] | 0.17
UACGUAAGUGGUUUUCCCCUGAUAGUGCUAAGGGGGCCUGGAAGUUCGGACUGGGCAGAGCUCAACACAGCGUGGCAAAGUGGCUGUGGCUAGACUGCCUCUCUGGAUUCCUCGUCACUCAGCAGGGCAUCUCUGAGAGAAAUGCC [G7A U47C] | 1.21
UACGUAGGUGGUUUUCCCCUGAUAGUACUAAGGGGGCCUGGAAGUUUGGACUGGGCAGAGCUCAACACAGCGUGGCAAAGUGGCUGUAGCUAGACUGCCUCUCUGGAUUCCUCGUCACUCAGCAGGGCAUCUCUGAGAGAAAUGCC [G27A G88A] | 0.04
UACGUAGGUGGUUUUCCCCUGAUAGUGCUAAGGGGGCCUGGAAGUUUGGACUGGGCAGUGCUCAACACAGCGUGGCAAAGUGGCUGUGGCUAGGCUGCCUCUCUGGAUUCCUCGUCACUCAGCAGGGCAUCUCUGAGAGAAAUGCC [A59U A94G] | 1.71
UACGUAGGUGGUUUUCCCCUGAUAGUGCUAAGGGGGCCUGGAAGUUUGGACUGGGCAGAGCUCAACACAGCGUGGCAAAGUGGCUGUGGCUAGACUGCCUCUCUGGAUUCCUCAUCGCUCAGCAGGGCAUCUCUGAGAGAAAUGCC [G114A A117G] | 1.27
UACGUAGGUGGUUUUCCCCUGAUAGUGCUAAGGGGGCCAGGAAGUUUGGACUGGGCAGAGCUCAACACAGCGUGGCAAAGUGGCUGUGGAUAGACUGCCUCUCUGGAUUCCUCGUCACUCAGCAGGGCAUCUCUGAGAGAAAUGCC [U39A C90A] | 0.03
UACGUAGGUGGUUUUCCCCUGAUAGUGCUAAGGGGGCCUGGAAGUUUGGACUGGGCAGGGCUCAACACAGCGUGGCAAAGUGGCUGUGGCUAGACUGCCUCUCUGGAUACCUCGUCACUCAGCAGGGCAUCUCUGAGAGAAAUGCC [A59G U109A] | 0.09
UACGUAGGUGGUUUUCCCCUGAUAGUGGUAAGGGGGCCUGGAAGUUUGGACUGGGCAGAGCUCAACACAGCGUGGCAAAGUGGCAGUGGCUAGACUGCCUCUCUGGAUUCCUCGUCACUCAGCAGGGCAUCUCUGAGAGAAAUGCC [C28G U85A] | 0.23
UACGUAGGUGGUUUUCCCCUGAUAGUGCUAAGGGGGCCUGGAAGUUUGGGCUGGGCAGAGCUCAACACAGCGGGGCAAAGUGGCUGUGGCUAGACUGCCUCUCUGGAUUCCUCGUCACUCAGCAGGGCAUCUCUGAGAGAAAUGCC [A50G U73G] | 0.34
UACGUAGGUGGUUUUCCCCUGAUAGUGCUGAGGGGGCCUGGAAGUUUGGACUGGGCAGAGCUCAACACAGCGUGGCAAAGUGGCGGUGGCUAGACUGCCUCUCUGGAUUCCUCGUCACUCAGCAGGGCAUCUCUGAGAGAAAUGCC [A30G U85G] | 0.17
UACGUAGGUGGUUUUCCCCUGACAGUGCUAAGGGGGCCUGGAAGUUUGGACUGGGCAGAGCUCAACACAGCGUGGCGAAGUGGCUGUGGCUAGACUGCCUCUCUGGAUUCCUCGUCACUCAGCAGGGCAUCUCUGAGAGAAAUGCC [U23C A77G] | 1.24
UACGUAGGUGGUUUUCCCCUGAUAGAGCUAAGGGGGCCUGGAAGUUUGGACUGGGCAGAGCUCAACACAGCGUGGCAAAGUGGCUGAGGCUAGACUGCCUCUCUGGAUUCCUCGUCACUCAGCAGGGCAUCUCUGAGAGAAAUGCC [U26A U87A] | 0.01
UACGUAGGUGGUUUUCCCCAGAUAGUGCUAAGGGGGCCUGGAAGUUUGGACUGGGCAGAGCUCAACACAGCGUGGCAAAGUGGCUGUGGCUAGACUGCCUCUCCGGAUUCCUCGUCACUCAGCAGGGCAUCUCUGAGAGAAAUGCC [U20A U104C] | 0.93
UACGUAGGUGGUUUUCCCCUGAUAGUGCUAAGGGGGCCUGGGAGUUUGGACUGGGCAGAGCUCAACACAGCGUGGCAAAGUGGCUGUGGCUAGACUGCCUCUCUGGAUUCCUCGUCACUCAGCAGGGCAUCUCUGAGAGUAAUGCC [A42G A140U] | 1.2
UACGUAGGUGGUUUUCCCCUGAUAGUGCUAAGGGGGCCUGGAAGUUUGGACUGAGCAGAGCUCAACACAGCGUGGCAAAGUGGCUGUGGCUAGACUGCCUCUCUGGAUUCCUCGUCACCCAGCAGGGCAUCUCUGAGAGAAAUGCC [G54A U119C] | 1.35
UACGUAGGUGGUUUUCCCCUGAUAGUGCUCAGGGGGCCUGGAAGUUUGGACUGGGCAGAGCUCAACACGGCGUGGCAAAGUGGCUGUGGCUAGACUGCCUCUCUGGAUUCCUCGUCACUCAGCAGGGCAUCUCUGAGAGAAAUGCC [A30C A69G] | 0
UACGUAGGUGGUUUUCCCCUGAUAGUGCUAAGGGGGCCUGGAAGUUUGGACUGGGCAGAGCUCAACACAGCGUGGCAAAGUGGCUGUGGCUAGACUGCCUCUCUGGAUUCCUCGUCACUCAGCAGGGCACCUCUGAGAGAACUGCC [U130C A142C] | 1.76
UACGUAGGUGGUUUUCCCCUGAUAGUGCUAAGGGGGCCUGGAAGAUUGGGCUGGGCAGAGCUCAACACAGCGUGGCAAAGUGGCUGUGGCUAGACUGCCUCUCUGGAUUCCUCGUCACUCAGCAGGGCAUCUCUGAGAGAAAUGCC [U45A A50G] | 0.95
UACGUAGGUGGUUUUCCCCUGAUAGUGCUAAGGGGGCCUGGAAGUUUGGACUGGGCAGAGCUCAACACAGCGUGGCAAAGUGGCUGUCGCUAGACUGCCUCUCUGGAUUCCUCGUCACUCAGCAGGGCAUCUCUGAGAGAAAUGCC [G88C] | 0.11
UACGUAGGUGGUUAUCCCCUGAUAGUGCUAAGGGGGCCUGGAAGUUUGGACUGGGCAGAGCUCAACACAGCGUGGCAAAGUGGCUGUGGCUAGACUGCCUCUCUGGAUUCCUCGUCACUCAGCAGGGCGUCUCUGAGAGAAAUGCC [U14A A129G] | 1.84

Variant | self-cleavage
UACGUAGGUGGUUUUCCCCUGAUAGUGCUAAGGGGGCCUGGAAGUUUGGACUGGGCAGAGCUCAACACAGCGUGGCAAAGUGGCUGUGGCCAGAAUGCCUCUCUGGAUUCCUCGUCACUCAGCAGGGCAUCUCUGAGAGAAAUGCC [U91C C95A] | 0.08
UACGUAGGUGGUUUUCCCCUGAUAGUGCUAAGGGGGCCUGGAAGUUUGGACUGGGCAGAGCUCAUCACAGCGUGGCAAGGUGGCUGUGGCUAGACUGCCUCUCUGGAUUCCUCGUCACUCAGCAGGGCAUCUCUGAGAGAAAUGCC [A65U A79G] | 0.21
UACGUAGGUGGUUUUCCCCUGAUAGUGCUAAGGGGGCCUGGAAGUUUGGACUGGGCAGAGCUCAACACGGCGUGGCAAAGUGGCUGUGGCUAGACUGCCUCUCUGGAUUCCUCGUCACUCAGCAGGGCAUCUCUGUGAGAAAUGCC [A69G A136U] | 0.45
UACGUAGGUGGUUUUCCCCUGAUAGUGCUAAGGGGGCCUGGAAGUUUGGACUGGGCAGAGCUCAACACAACGUGGCAAAGUGGCUGUGGCUAGACUGCCUCUCUGGAUUCCUCGGCACUCAGCAGGGCAUCUCUGAGAGAAAUGCC [G70A U115G] | 0.11
UACGUAGGUGGUUUUCCCCUGAUAGUGCUAAGGGGGCCUGGAAGUUUGGAUUGGGCAGAGCUCAACACAGCGUGGCAAAGUGGCUGUGGCUAGACUGCCUCCCUGGAUUCCUCGUCACUCAGCAGGGCAUCUCUGAGAGAAAUGCC [C51U U102C] | 0.41
UACGUAGGUCGUCUUCCCCUGAUAGUGCUAAGGGGGCCUGGAAGUUUGGACUGGGCAGAGCUCAACACAGCGUGGCAAAGUGGCUGUGGCUAGACUGCCUCUCUGGAUUCCUCGUCACUCAGCAGGGCAUCUCUGAGAGAAAUGCC [G10C U13C] | 0.94
UACGUAGGUGGUUUUCCCCUGAUAGUGCUAAGUGGGCCUGGAAGUUUGGACUGGGCAGAGCUCAACACAGCGUGGCGAAGUGGCUGUGGCUAGACUGCCUCUCUGGAUUCCUCGUCACUCAGCAGGGCAUCUCUGAGAGAAAUGCC [G33U A77G] | 1.78
UACGUAGGUGGUUUUCCCCUGAUAGUGCUAAGGGGGCCUGGAAGUUUGGACUGGGCUGAGCUCAACACAGCGUGGCAAAGUGGCUGUGGCUAGACUGCCCCUCUGGAUUCCUCGUCACUCAGCAGGGCAUCUCUGAGAGAAAUGCC [A57U U100C] | 0.19
UACGUAGGUGGUUUUCCCCUGACAGUGCUAAGGGGGCCUGGAAGCUUGGACUGGGCAGAGCUCAACACAGCGUGGCAAAGUGGCUGUGGCUAGACUGCCUCUCUGGAUUCCUCGUCACUCAGCAGGGCAUCUCUGAGAGAAAUGCC [U23C U45C] | 1.7
UACGUAGGUGGUUUUCCCCUGAUAGUGCUAAGGGGGCCUGGAAGUUUGGACUGGGCAGAGCUCAACACUGCGUGGCAAAGUGGCUGUGGCUAGACUGCCUCUCUGGAUUCCUCGUCACUCAGCAGGGCAACUCUGAGAGAAAUGCC [A69U U130A] | 0.09
UACGUAGGUGGUUUUCCCCUGAUAGUGCUAAGGGGGCCUGGAAGUUUGGACUGGGCAGAGAUCAACACUGCGUGGCAAAGUGGCUGUGGCUAGACUGCCUCUCUGGAUUCCUCGUCACUCAGCAGGGCAUCUCUGAGAGAAAUGCC [C61A A69U] | 0.02
UACGUAGGUGGUUUUCCCCUGAUAGUGCUAAGGGGGCCUGGAAGUUUGGACUGGGCAGAGCUCAACACAGCGUGGCAAAGUGGCUGUGGCUAGACUGCCUCUCUGGAUUCCUCGUCACUCAGCGGGGCAUCUCAGAGAGAAAUGCC [A124G U134A] | 0.39
UACGUAGGUGGUUUUCCCCUGAUAGUGCUAAGGGGGCCUGGAAGUUUGGACUGGGCAGAGCUCAACACAGCGCGGCAAAGUGGCUGUGGCUAGACUGCCUCUCCGGAUUCCUCGUCACUCAGCAGGGCAUCUCUGAGAGAAAUGCC [U73C U104C] | 0.94
UACGUAGGUGGUUUUCCCCUGAUAGUGCUAAGGGGGCCUGGAAGUUUGGACUGGGCAAAGCUCAACACAGCGUGGCAAAGUGGCUGUGGCUAGACUGCCUCUCUGGAUUCCUCGUCACCCAGCAGGGCAUCUCUGAGAGAAAUGCC [G58A U119C] | 0.06
UACGUAGGUGGUUUUCCCCUGAUAGUGCUAAGGGGGCCCGGAAGUUUGGACUGGGCAGAGCUCAACACAGCGUGGCAAAGUGGCUGUGGCUAGACUGCCUCUCUGGAUUCCUCGUCACUCAGCAGGGCAUCUCUGAGUGAAAUGCC [U39C A138U] | 1.29
UACGUAGGUGGUUCUCCCCUGAUAGUGCUAAGGGGGCCUGGAAGUUUGGUCUGGGCAGAGCUCAACACAGCGUGGCAAAGUGGCUGUGGCUAGACUGCCUCUCUGGAUUCCUCGUCACUCAGCAGGGCAUCUCUGAGAGAAAUGCC [U14C A50U] | 1.03
UACGUAGGUGGUUUUCCCCUGAUAGUGCUAAGGGGGCCUGGAAGUUUGGACUGGGCAGAGCUCAACACAGCGUGGCAAAGUGGCUGCGGCUAGACUGCCUCUCUGGAUUCCUCGUCACUCAGCAGGGCAUCUCUGAGAGAAAUGCU [U87C C146U] | 0.34
UACGUAGGUGGUUUUCCCCUGAUAGUGCUAAGGGGGCCUGGAAGUUUGGACUGGGCAGAGCUCGACACAGCGUGGCAAAGUGGCUGUGGCUAGACUGCCUCUCUGGAUUCCUCGUCACUCAGCAGGGCAUCACUGAGAGAAAUGCC [A64G U132A] | 0.34
UACGAAGGUGGUUUUCCCCUGAUAGUGCUAAGGGGGCCUGGAAGUAUGGACUGGGCAGAGCUCAACACAGCGUGGCAAAGUGGCUGUGGCUAGACUGCCUCUCUGGAUUCCUCGUCACUCAGCAGGGCAUCUCUGAGAGAAAUGCC [U5A U46A] | 0.82

Source: the RNAGym collection of RNA variant scans (doi:10.7554/elife.90254)
